Reference: PMC5988349

Key:
[1] = molecular target: dynactin (purified from pig brains) (pig (endogenous in pig brain)) (UniProt F2Z5G5); experiment: cryo-EM structure
[2] = molecular target: dynactin (purified from pig brains) (pig (endogenous in pig brain)) (UniProt F2Z5G5); experiment: negative-stain EM with 3D classification
[3] = molecular target: dynein tail (HC^1-1455) complex (human) (UniProt Q14204); experiment: negative-stain EM with 3D classification
[4] = molecular target: wild-type human cytoplasmic dynein-1, SNAPf-tagged, labelled with TMR or Alexa647 (human) (UniProt Q14204)

Row | stoichiometry N [1] | percent of adaptor complexes with one dynein (with m5) [2] [%] | percent of adaptor complexes with two dyneins (with m2 and m4) [3] [%] | percent of adaptor complexes with two dyneins (with m2 and m5) [3] [%] | percent of adaptor complexes with two dyneins (with m2 and m6) [3] [%] | velocity of BICD2 complexes containing both fluorophores, and hence two dyneins [4] [μm/s] | Substance
1 | 2 | 69 | 88 | 17 | 94 |  | dynein tail (HC^1-1455) complex (from UniProt Q14204;O43237;P63172;P63167;Q9NP97)
2 |  |  |  |  |  | 1.08 | wild-type human cytoplasmic dynein-1, SNAPf-tagged, labelled with TMR or Alexa647 (from UniProt Q14204;O43237;P63172;P63167;Q9NP97) (complex)
